Data from article PMC3764444, “Involvement of A20 in the molecular switch that activates the non-canonical NF-кB pathway” (Scientific Reports, 2013).

Biological target: T1, recombinant cIAP1 protein (human, UniProt Q13490 1-618)
T1 construct: the whole cIAP1, human cDNA; cloned in pGEX-6P-1; also called released from GST-cIAP1 (GST-cIAP); source: E. coli DH5α, purified (Glutathione Sepharose 4B), released from the beads with 3C protease (Turbo3C)
Experiment: pull-down; GST pull-down: 2 μg polyubiquitin chains or 0.5 μg cIAP1 with 0.5 μg GST or GST-ZnF5-7 proteins and Glutathione Sepharose 4B in TNE buffer (20 mM Tris-HCl pH 7.5, 130 mM NaCl, 1% Triton X-100, 1 mM EDTA) with 0.5 mM DTT and 0.1 mg/ml BSA, 3 hr; immunoblot
Details: both partners purified

T1 sequence (Q13490 whole entry): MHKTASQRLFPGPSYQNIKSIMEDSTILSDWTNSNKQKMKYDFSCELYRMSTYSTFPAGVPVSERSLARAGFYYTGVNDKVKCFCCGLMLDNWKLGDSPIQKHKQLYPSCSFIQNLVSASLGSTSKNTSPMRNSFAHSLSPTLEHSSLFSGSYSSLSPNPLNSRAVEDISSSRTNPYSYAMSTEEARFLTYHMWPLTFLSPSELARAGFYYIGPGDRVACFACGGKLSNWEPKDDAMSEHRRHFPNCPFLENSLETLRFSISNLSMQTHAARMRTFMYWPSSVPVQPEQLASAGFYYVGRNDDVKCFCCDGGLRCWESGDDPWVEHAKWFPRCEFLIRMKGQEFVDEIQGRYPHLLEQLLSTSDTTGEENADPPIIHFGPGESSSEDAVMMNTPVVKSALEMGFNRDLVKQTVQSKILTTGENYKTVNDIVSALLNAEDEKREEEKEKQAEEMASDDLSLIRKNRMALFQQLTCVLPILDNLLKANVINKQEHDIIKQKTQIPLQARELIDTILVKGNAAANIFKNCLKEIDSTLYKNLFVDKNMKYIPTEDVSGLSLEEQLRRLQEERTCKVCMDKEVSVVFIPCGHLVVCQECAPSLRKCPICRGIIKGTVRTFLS

B1: GST-A20-ZnF5-7 (domain or fragment, human, UniProt P21580 647-790, looked up)
chain: TASRFQNTIPCLGRECGTLGSTMFEGYCQKCFIEAQNQRFHEAKRTEEQLRSSQRRDVPRTTQSTSRPKCARASCKNILACRSEELCMECQHPNQRMGPGAHRGEPAPEDPPKQRCRAPACDHFGNAKCNGYCNECFQFKQMYG
notes: A20, human, fragment aa 647-790 encompassing ZnF5 to ZnF7; cloned in pGEX-6P-1; also called GST-ZnF5-7; source: E. coli DH5α, purified (Glutathione Sepharose 4B), dialyzed with PBS
- binding result: binds
